In patent publication US11951131B2, “Anti-SLAMF7 chimeric antigen receptors” (The United States of America, as represented by the …, priority 2018, dated 2024):

Assays:
Type in all cases: cell-based, human
T cells only = assay: IFN-gamma ELISA, T cells only (no target cells)
Method: (§1) One-hundred thousand SLAMF7^+ or SLAMF7-negative target cells were combined with 100,000 CAR-transduced T cells in duplicate wells of a 96 well round bottom plate in 200 µL of AIM V™ medium (Invitrogen) plus 5% human serum. The plates were incubated at 37° C. for 18-20 hours. Following the incubation, ELISAs (enzyme-linked immunosorbent assays) for IFNγ were performed by using standard methods.
(§2) The T cells columns indicate whether T cells were transduced with Luc90-CD828Z, Luc63-CD828Z, or were untransduced. The % CAR^+ in Table B-1 was determined by staining the T cells with Protein L. Except for the % CAR^+ column, all values are pg/mL of IFN-gamma. T cells that were either untransduced or transduced with one of the indicated CARs were cultured with target cells overnight and a standard IFN-gamma ELISA was performed on the culture supernatant.
(§3) All values are pg/mL of IFN-gamma. T cells that were either untransduced or transduced with one of the indicated CARs were cultured with target cells overnight, and a standard IFN-gamma ELISA was performed on the culture supernatant.
(§4) The values in the cells are pg/mL of IFN-gamma. T cells that were either untransduced or transduced with one of the indicated CARs were cultured with target cells overnight, and a standard IFN-gamma ELISA was performed on the culture supernatant. The concentrations of 0, 50, or 200 ng/mL at the top of each column indicates the concentration of soluble SLAMF7 added to all T cell plus target cell overnight cultures in that column. The soluble SLAMF7 was added at the beginning of the overnight culture.

SLAMF7^+ target cells = assay: IFN-gamma ELISA and functional assays; conditions: 4-1BB-containing CAR compared to Luc90-CD828Z (Table C)
Method: as §1
CAR-expressing T cells cultured alone produced very low levels of IFNγ. IFNγ production of T cells expressing a CAR with a 4-1BB moiety, Luc90-CD8BBZ, was compared to IFNγ production of T cells expressing Luc90-CD828Z (Table C). […] Low levels of soluble SLAMF7 are found in the serum of some MM patients (see Tai, et al., Blood, 112(4): 1329-1337 (2008)). IFNγ ELISA assays were conducted to determine if adding SLAMF7 to cultures of anti-SLAMF7 CAR T cells plus target cells could block IFNγ release by the CAR T cells (Table D). IFNγ release by the CART cells was used as a measure recognition of the SLAMF7^+ target cells by the CAR T cells. The concentrations of soluble SLAMF7 added to the cultures were similar to those found in the blood of patients. Blocking of SLAMF7^+ target cell recognition by the soluble SLAMF7 was not observed. Also, activation of the anti-SLAMF7 CAR T cells by the soluble SLAMF7 was not observed.

NGFR-K562 = assay: IFN-gamma ELISA, CAR T cells with NGFR-K562 target cells
Source text: (§5) MM.1S is a SLAMF7^+ multiple myeloma cell line that was obtained from American Type Culture Collection (ATCC). A549 is a BCMA-negative lung cancer cell line (ATCC). TC71 is a BCMA-negative sarcoma cell line. CCRF-CEM, 293T, and A549 are SLAMF7-negative cell lines (ATCC). COL0207, HepG2, U251, Panc10.05, and TC71 are […] that were kind gifts from Dr. Steven Rosenberg, National Cancer Institute. SLAMF7-K562 are K562 cells (ATCC) which were transduced with the gene for full-length SLAMF7. SLAMF7-RPMI are RPMI8226 cells (ATCC) which were transduced with the gene for full-length SLAMF7. NGFR-K562 are K562 cells which were transduced with the gene for low-affinity nerve growth factor (Kochenderfer et al., J. Immunother., 32(7): 689-702 (2009)). All of the human samples mentioned were obtained from patients enrolled in IRB-approved clinical trials at the National Cancer Institute.
as §1, §2, §3, §4

SLAMF7-K562 = assay: IFN-gamma ELISA, CAR T cells cultured overnight with SLAMF7-K562 target cells
Source text: as §5, §1, §2, §3

CCRF-CEM = assay: IFN-gamma ELISA, CAR T cells with CCRF-CEM target cells; conditions: Table C
Source text: as §5, §1, §3

SLAMF7-RPMI = assay: IFN-gamma ELISA, CAR T cells cultured overnight with SLAMF7-RPMI target cells
Source text: as §5, §1, §2, §3, §4

MM.1S = assay: IFN-gamma ELISA, CAR T cells with MM.1S target cells; conditions: Table C
Source text: as §5, §1, §3

H929 = assay: IFN-gamma ELISA, CAR T cells with H929 target cells; conditions: Table C
Method: as §1, §3

TC71 = assay: IFN-gamma ELISA, CAR T cells with TC71 target cells; conditions: Table B-2
Source text: as §5
(§6) One-hundred thousand SLAMF7^+ or SLAMF7-negative target cells were combined with 100,000 CAR-transduced T cells in duplicate wells of a 96 well round bottom plate in 200 µL of AIM V™ medium (Invitrogen) plus 5% human serum. […]
(§7) The T cells columns indicate whether T cells were transduced with Luc90-CD828Z, Luc63-CD828Z, or were untransduced. The % CAR^+ in Table B-1 was determined by staining the T cells with Protein L. Except for the % CAR^+ column, all values are pg/mL of IFN-gamma. […]

Panc 10.05 = assay: IFN-gamma ELISA, CAR T cells with Panc 10.05 target cells; conditions: Table B-2
Source text: as §5, §6, §7

HepG2 = assay: IFN-gamma ELISA, CAR T cells with HepG2 target cells; conditions: Table B-1
Source text: as §5, §6, §7

293T = assay: IFN-gamma ELISA, CAR T cells with 293T target cells; conditions: Table B-1; SLAMF7-negative cell line
Source text: as §5, §6, §7

COLO 205 = assay: IFN-gamma ELISA, CAR T cells with COLO 205 target cells; conditions: Table B-1
Source text: as §5, §6, §7

U251 = assay: IFN-gamma ELISA, CAR T cells with U251 target cells; conditions: Table B-2
Source text: as §5, §6, §7

A549 = assay: IFN-gamma ELISA, CAR T cells with A549 target cells; conditions: Table B-2; SLAMF7-negative
Source text: as §5, §6, §7

[1] = Table D, soluble SLAMF7 added 0 ng/ml
[2] = Table D, soluble SLAMF7 added 50 ng/ml
[3] = Table D, soluble SLAMF7 added 200 ng/ml

For “Luc90-CD8BBZ: anti-SLAMF7 CAR (SEQ ID NO: 29): Luc90-CD828Z with the CD28 moiety replaced with a 4-1BB moiety”, the “IFN-gamma, T cells only” value (T cells only; Table C) was 531 pg/mL, the background cytokine release (SLAMF7^+ target cells) was “Generally higher background cytokine release” and the “IFN-gamma, target cells NGFR-K562” value (NGFR-K562; Table C) was 434 pg/mL. The “IFN-gamma, target cells SLAMF7-K562” value (SLAMF7-K562; Table C) was 16697 pg/mL, the “IFN-gamma, target cells CCRF-CEM” value (CCRF-CEM) was 278 pg/mL and the “IFN-gamma, target cells SLAMF7-RPMI8226” value (SLAMF7-RPMI; Table C, overnight culture) was 19713 pg/mL. For the same molecule, the “IFN-gamma, target cells MM.1S” value (MM.1S) was 5101 pg/mL and the “IFN-gamma, target cells H929” value (H929) was 856 pg/mL.

B1: Luc63-CD828Z: anti-SLAMF7 CAR (SEQ ID NO: 28): identical to Luc90-CD828Z except scFv from humanized Luc63 antibody (protein)
chain: MALPVTALLLPLALLLHAARPDIQMTQSPSSLSASVGDRVTITCKASQDVGIAVAWYQQKPGKVPKLLIYWASTRHTGVPDRFSGSGSGTDFTLTISSLQPEDVATYYCQQYSSYPYTFGQGTKVEIKGSTSGSGKPGSGEGSTKGEVQLVESGGGLVQPGGSLRLSCAASGFDFSRYWMSWVRQAPGKGLEWIGEINPDSSTINYAPSLKDKFIISRDNAKNSLYLQMNSLRAEDTAVYYCARPDGNYWYFDVWGQGTLVTVSSFVPVFLPAKPTTTPAPRPPTPAPTIASQPLSLRPEACRPAAGGAVHTRGLDFACDIYIWAPLAGTCGVLLLSLVITLYCNHRNRSKRSRLLHSDYMNMTPRRPGPTRKHYQPYAPPRDFAAYRSRVKFSRSADAPAYQQGQNQLYNELNLGRREEYDVLDKRRGRDPEMGGKPRRKNPQEGLYNELQKDKMAEAYSEIGMKGERRRGKGHDGLYQGLSTATKDTYDALHMQALPPR
In the case of B1, the “IFN-gamma, T cells only” value (T cells only; Table B-2) is reported as 71 pg/mL, the “IFN-gamma, T cells 0 ng/ml” value (T cells only; Table D, no target cells, soluble SLAMF7 0 ng/ml) is reported as 20 pg/mL and the “IFN-gamma, T cells 50 ng/ml” value (T cells only; Table D, no target cells, soluble SLAMF7 50 ng/ml) is reported as 22 pg/mL. The “IFN-gamma, T cells 200 ng/ml” value (T cells only; Table D, no target cells, soluble SLAMF7 200 ng/ml) was 30 pg/mL, the “IFN-gamma, target cells TC71” value (TC71) was 113 pg/mL and the “IFN-gamma, target cells Panc 10.05” value (Panc 10.05) was 53 pg/mL. For the same molecule, the “IFN-gamma, target cells NGFR-K562” value (NGFR-K562; Table B-2, SLAMF7-negative) was 78 pg/mL, the “IFN-gamma, target cells NGFR K562 0 ng/ml” value (NGFR-K562; [1]) was 191 pg/mL and the “IFN-gamma, target cells NGFR K562 50 ng/ml” value (NGFR-K562; [2]) was 98 pg/mL. The “IFN-gamma, target cells NGFR K562 200 ng/ml” value (NGFR-K562; [3]) was 83 pg/mL, the “IFN-gamma, target cells SLAMF7-K562” value (SLAMF7-K562; Table B-1, overnight culture) was 7106 pg/mL and the “IFN-gamma, target cells SLAMF7-K562” value (SLAMF7-K562; Table B-2, overnight culture) was 7524 pg/mL. The “IFN-gamma, target cells HepG2” value (HepG2) was 33 pg/mL, the “IFN-gamma, target cells 293T” value (293T) was 38 pg/mL and the “IFN-gamma, target cells SLAMF7-RPMI” value (SLAMF7-RPMI; Table B-1, overnight culture, ELISA on supernatant) was 8123 pg/mL. For the same molecule, the “IFN-gamma, target cells SLAMF7 RPMI 0 ng/ml” value (SLAMF7-RPMI; [1]) was 3495 pg/mL, the “IFN-gamma, target cells SLAMF7 RPMI 50 ng/ml” value (SLAMF7-RPMI; [2]) was 2.873 ng/mL and the “IFN-gamma, target cells CD319 RPMI 200 ng/ml” value (SLAMF7-RPMI; [3]) was 3083 pg/mL. The “IFN-gamma, target cells COLO 205” value (COLO 205) was 29 pg/mL, the “IFN-gamma, target cells U251” value (U251) was 46 pg/mL and the “IFN-gamma, target cells A549” value (A549) was 76 pg/mL.
